{"source": "patent US20050003416", "molecules": {"B1": {"name": "enterokinase-activated SolCorin-EK (protein)", "chain 1": "LEDASLPGDQSHRNTSACMNITHSQCQMLPYHATLTPLLSVVRNMEMEKFLKFFTYLHRLSCYQHIMLFGCTLAFPECIIDGDDSHGLLPCRSFCEAAKEGCESVLGMVNYSWPDFLRCSQFRNQTESSNVSRICFSPQQENGKQLLCGRGENFLCASGICIPGKLQCNGYNDCDDWSDEAHCNCSENLFHCHTGKCLNYSLVCDGYDDCGDLSDEQNCDCNPTTEHRCGDGRCIAMEWVCDGDHDCVDKSDEVNCSCHSQGLVECRNGQCIPSTFQCDGDEDCKDGSDEENCSVIQTSCQEGDQRCLYNPCLDSCGGSSLCDPNNSLNNCSQCEPITLELCMNLPYNSTSYPNYFGHRTQKEASISWESSLFPALVQTNCYKYLMFFSCTILVPKCDVNTGERIPPCRALCEHSKERCESVLGIVGLQWPEDTDCSQFPEENSDNQTCLMPDEYVEECSPSHFKCRSGQCVLASRRCDGQADCDDDSDEENCGCKERDLWECPSNKQCLKHTVICDGFPDCPDYMDEKNCSFCQDDELECANHACVSRDLWCDGEADCSDSSDEWDCVTLSINVNSSSFLMVHRAATEHHVCADGWQEILSQLACKQMGLGEPSVTKLIQEQEKEPRWLTLHSNWESLNGTTLHELLVNGQSCESRSKISLLCTKQDCGRRPAADDDDK", "chain 2": "ILGGRTSRPGRWPWQCSLQSEPSGHICGCVLIAKKWVLTVAHCFEGRENAAVWKVVLGINNLDHPSVFMQTRFVKTIILHPRYSRAVVDYDISIVELSEDISETGYVRPVCLPNPEQWLEPDTYCYITGWGHMGNKMPFKLQEGEVRIISLEHCQSYFDMKTITTRMICAGYESGTVDSCMGDSGGPLVCEKPGGRWTLFGLTSWGSVCFSKVLGPGVYSNVSYFVEWIKRQIYIQTFLLNKGELGTELGSEGKPIPNPLLGLDSTRTGHHHHHH"}, "B2": {"name": "enterokinase-activated SolCorinPD-EK (protein)", "chain 1": "KQDCGRRPAADDDDK", "chain 2": "ILGGRTSRPGRWPWQCSLQSEPSGHICGCVLIAKKWVLTVAHCFEGRENAAVWKVVLGINNLDHPSVFMQTRFVKTIILHPRYSRAVVDYDISIVELSEDISETGYVRPVCLPNPEQWLEPDTYCYITGWGHMGNKMPFKLQEGEVRIISLEHCQSYFDMKTITTRMICAGYESGTVDSCMGDSGGPLVCEKPGGRWTLFGLTSWGSVCFSKVLGPGVYSNVSYFVEWIKRQIYIQTFLLNKGELGTELGSEGKPIPNPLLGLDSTRTGHHHHHH"}}, "key": {"[1]": {"system": "T1, SolCorin-EK (soluble modified human corin, zymogen)", "T1 sequence": "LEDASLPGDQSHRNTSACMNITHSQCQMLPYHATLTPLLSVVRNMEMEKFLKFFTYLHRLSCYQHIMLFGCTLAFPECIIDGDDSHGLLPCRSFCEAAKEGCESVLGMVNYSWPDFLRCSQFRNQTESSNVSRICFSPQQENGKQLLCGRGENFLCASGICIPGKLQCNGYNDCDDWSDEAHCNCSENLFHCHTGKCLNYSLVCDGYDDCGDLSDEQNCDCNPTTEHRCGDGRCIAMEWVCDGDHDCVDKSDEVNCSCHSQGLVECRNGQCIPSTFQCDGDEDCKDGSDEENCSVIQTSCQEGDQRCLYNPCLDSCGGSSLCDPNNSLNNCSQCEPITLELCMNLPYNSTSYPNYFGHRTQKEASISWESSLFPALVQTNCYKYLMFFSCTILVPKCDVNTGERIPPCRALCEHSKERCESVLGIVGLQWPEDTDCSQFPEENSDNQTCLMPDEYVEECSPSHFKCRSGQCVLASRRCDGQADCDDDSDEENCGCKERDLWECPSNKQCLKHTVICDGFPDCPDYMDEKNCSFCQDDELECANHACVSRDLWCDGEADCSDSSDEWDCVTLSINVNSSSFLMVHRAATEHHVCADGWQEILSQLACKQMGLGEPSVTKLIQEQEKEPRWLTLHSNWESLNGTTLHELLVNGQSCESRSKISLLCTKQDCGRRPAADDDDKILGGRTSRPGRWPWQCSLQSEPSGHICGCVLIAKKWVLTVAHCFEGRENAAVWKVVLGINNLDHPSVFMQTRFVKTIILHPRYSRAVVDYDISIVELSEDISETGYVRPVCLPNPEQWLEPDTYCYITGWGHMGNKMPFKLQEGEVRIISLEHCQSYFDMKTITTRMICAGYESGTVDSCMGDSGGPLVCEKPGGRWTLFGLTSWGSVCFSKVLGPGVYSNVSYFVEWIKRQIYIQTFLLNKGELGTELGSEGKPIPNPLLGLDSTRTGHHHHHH"}, "[2]": {"system": "T2, SolCorinPD-EK (soluble modified human corin protease domain, zymogen)", "T2 sequence": "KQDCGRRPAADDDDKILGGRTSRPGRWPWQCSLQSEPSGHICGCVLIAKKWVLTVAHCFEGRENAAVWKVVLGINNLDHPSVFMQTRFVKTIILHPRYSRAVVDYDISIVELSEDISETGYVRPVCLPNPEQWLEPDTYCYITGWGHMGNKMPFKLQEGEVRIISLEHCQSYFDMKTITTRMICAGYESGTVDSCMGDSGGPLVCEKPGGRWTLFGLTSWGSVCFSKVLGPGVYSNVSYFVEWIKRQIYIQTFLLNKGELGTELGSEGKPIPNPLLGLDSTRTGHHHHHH"}, "[3]": {"target": "T3, recombinant human wild-type pro-ANP with C-terminal V5 and 6xHis tags, P01160", "T3 chain": "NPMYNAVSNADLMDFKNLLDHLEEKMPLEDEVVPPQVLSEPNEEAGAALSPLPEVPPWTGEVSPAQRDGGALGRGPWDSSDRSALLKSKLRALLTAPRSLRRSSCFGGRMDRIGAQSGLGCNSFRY"}}, "data": [{"molecule": "purified enterokinase (Calbiochem)", "values": [{"measurement": "cleavage of soluble corin by 0, 2, 10, 20 or 40 units enterokinase, 25 C, 4 hrs (anti-V5 Western blot)", "setting": "[1]", "result": "both the long form (SolCorin-EK) and short form (SolCorinPD-EK) of soluble modified human corin were cleaved by exposure to enterokinase in a dose-dependent manner"}, {"measurement": "cleavage of soluble corin by 0, 2, 10, 20 or 40 units enterokinase, 25 C, 4 hrs (anti-V5 Western blot)", "setting": "[2]", "result": "both the long form (SolCorin-EK) and short form (SolCorinPD-EK) of soluble modified human corin were cleaved by exposure to enterokinase in a dose-dependent manner"}]}, {"molecule": "B1", "values": [{"measurement": "processing of pro-ANP to ANP in mixed conditioned media, 4 C, 3 hours (anti-V5 immunoprecipitation and Western blot)", "setting": "[3]", "result": "pro-ANP was processed to ANP by the long form (SolCorin-EK), but not the short form (SolCorin-PD-EK), of soluble modified human corin upon activation by enterokinase in vitro"}]}, {"molecule": "B2", "values": [{"measurement": "processing of pro-ANP to ANP in mixed conditioned media, 4 C, 3 hours (anti-V5 immunoprecipitation and Western blot)", "setting": "[3]", "result": "pro-ANP was processed to ANP by the long form (SolCorin-EK), but not the short form (SolCorin-PD-EK), of soluble modified human corin upon activation by enterokinase in vitro"}]}]}
